Experimental data: PMC6172828

What was measured:
[1] = target: human ATF7IP peptide, K16me3, C-terminal biotin (human); assay: SPR; same chip and buffer, 25 °C; kinetics not fitted, KD by steady-state affinity analysis; for all tri-methylated peptides and LIG1 K126me2 G9a SET-domain in twofold dilutions from 200 µM
[2] = target: human ATF7IP peptide, K16me2, C-terminal biotin (human); assay: SPR; biotinylated peptides immobilised on streptavidin chip SA, Biacore T200, 25 °C, 10 mM HEPES pH 7.4, 150 mM NaCl; G9a SET-domain 1.5-fold dilutions from 20 or 10 µM; 1:1 binding model, KD calculated from kon and koff
[3] = target: human ATF7IP peptide, unmodified (K16me0), C-terminal biotin (human); assay: as above
[4] = target: human ATF7IP peptide, K16me1, C-terminal biotin (human); assay: as above
[5] = target: histone H3 peptide, K9me1, C-terminal biotin (human); assay: as above
[6] = target: histone H3 peptide, K9me2, C-terminal biotin (human); assay: as above
[7] = target: histone H3 peptide, unmodified (K9me0), C-terminal biotin (human); assay: as above

Kd [1]: > 1000 nM
Kd [2]: 38 nM
Kd [3]: 180 nM
Kd [4]: 43 nM
Kd [5]: 430 nM
Kd [6]: 350 nM
Kd [7]: 90 nM
Substance: human G9a SET-domain (residues 913–1193) (from UniProt Q96KQ7 913-1193) (domain or fragment)
